Drawing on the RNAGym collection of RNA variant scans (doi:10.7554/elife.80360), this text covers self-cleavage for 167 variants.

B1: CPEB3 Ribozyme (parent)
chain: GGGGGCCACAGCAGAAGCGUUCACGUCGCGGCCCCUGUCAGAUUCUGGUGAAUCUGCGAAUUCUGCUGU

Variants of B1 are the subject of this series. The series can be described thus: self-cleavage, relative activity (ratio to wild type); higher = more cleavage; co-transcriptional.
In the case of A8G G37U, the self-cleavage worked out at 0.134.

As for A8G G37A, the self-cleavage was 0.128. Then A8G U36C, with 0.593; and A8G U36G, with 0.135.

As for A8C G68A, the self-cleavage turned out to be 1.02. As for A8C G19C, the figure is 0.107; as for A8C G19U, 0.462. C7G G30C: the self-cleavage worked out at 1.01. Then C7G G30A, with 0.791; and A8C G50U, with 1.03; and A8C G50A, with 1.02. As for A8C G50C, the figure is 0.98; as for C7G C27A, 0.11. For A8G C33G, the self-cleavage turned out to be 0.488. As for A8U C45A, the figure is 1.01; as for A8U C45G, 0.958. As for C6U U49A, the figure is 1. As for C6U U49G, the figure is 0.956. Consider C7G A40C, for which the self-cleavage was found to be 0.17. Then C7U U44G, with 0.914. Then C7U U44A, with 0.881; and C7A G48C, with 0.681. Then C7G G11C, with 0.157; and C7G G11U, with 0.175; and A8U C57A, with 0.299. Consider A8U C57U, for which the self-cleavage worked out at 0.361. Then A8U C18U, with 0.928. Consider C7U G41C, for which the self-cleavage is 0.647.

Turning to A8G C9A, the self-cleavage is 0.994. Then C7G C32A, with 0.0649; and A8U A42G, with 0.943; and A8C C24A, with 0.707. As for C7A A15U, the figure is 0.135; as for C7A C39G, 0.428.

Regarding C7A U46A, the self-cleavage amounted to 0.6. Then C7G C35A, with 0.13. As for C7U A60C, the figure is 0.231; as for A8C C18A, 0.152; as for C7A G68C, 0.923. As for C7U G28A, the figure is 0.123.

Take C7A A8C: the self-cleavage amounted to 0.769.

Consider C7A G41A, for which the self-cleavage amounted to 0.255. Consider C7A G41U, for which the self-cleavage is 0.214. Then A8C U43C, with 0.95; and A8C U43A, with 0.971.

With A8C U43G, the self-cleavage came to 0.938. As for C7G G47U, the figure is 0.636; as for C7G G47C, 0.604. As for A8C G47U, the figure is 1.04; as for A8C G47C, 1.03; as for C7G A13C, 0.285. A8G C27G: the self-cleavage is 0.0649.

Consider A8G C39U, for which the self-cleavage came to 0.448. As for A8C C54A, the figure is 0.915; as for A8G A51U, 0.772; as for A8G A51G, 0.901. As for A8C A51C, the figure is 0.981; as for A8C A51G, 0.962. Take C7G A52G: the self-cleavage was found to be 0.38.

For A8C G48A, the self-cleavage was 1. As for A8G U67A, the figure is 0.59. Turning to C7A C18U, the self-cleavage stood at 0.224.

On to C7A C18G, for which the self-cleavage worked out at 0.159. As for A8G U44A, the figure is 0.607; as for A8G U44G, 0.651; as for C7U C12G, 0.822. Then C7U C12U, with 0.94; and C6U U62C, with 0.811; and C7G C33U, with 0.253. As for C7A U26A, the figure is 0.176.

A8G A10G: the self-cleavage is 0.122.

For A8G A10C, the self-cleavage amounted to 0.666. With C7G A23U, the self-cleavage worked out at 0.645. Then C7G A23G, with 0.333; and C7U G56A, with 0.916; and C7U U61G, with 0.714. For C7A U69C, the self-cleavage is 1. Then C7A C54G, with 0.101. Then C7U G37A, with 0.187; and C7U G37C, with 0.152.

For the variant A8C U55C, the self-cleavage worked out at 0.891.

Turning to A8C A40C, the self-cleavage amounted to 0.639. As for C7U G11A, the figure is 0.816. As for C7U G11C, the figure is 0.663. Turning to C7G A60C, the self-cleavage amounted to 0.196. Then C6U U69C, with 1.06.

As to C7G G25A, the self-cleavage came out at 0.107. Then C7A C29A, with 0.0674; and A8U C66A, with 0.857.

Regarding A8U C66U, the self-cleavage was found to be 0.993.

On to A8C C66A, for which the self-cleavage is 0.818. Then A8C C33U, with 1; and C7G G48C, with 0.502; and C7A G31U, with 0.598. As for C7A A60G, the self-cleavage came to 0.272. As for C7A G11C, the figure is 0.305; as for A8G U20A, 0.0589.

On to C7A U64C, for which the self-cleavage was 0.336.

On to A8C U26A, for which the self-cleavage is 0.82. Regarding A8C U26C, the self-cleavage worked out at 0.992.

With A8C U26G, the self-cleavage was found to be 0.835. Then A8G U62G, with 0.367; and A8G U64G, with 0.304. Then A8G U69C, with 1.05. Then A8G U69A, with 0.928; and C7G C29U, with 0.0696; and C7G C29A, with 0.102. On to C7G C29G, for which the self-cleavage turned out to be 0.125. Then C7U G58U, with 0.983; and A8U A51C, with 0.974; and C7U G31A, with 0.496. Then A8C A52U, with 0.962; and C7G U26A, with 0.103.

As to C7G U26G, the self-cleavage was 0.233.

Take A8G U38G: the self-cleavage is 0.0785. Then A8G U38A, with 0.662; and C7A C63G, with 0.303. As to C7A C63A, the self-cleavage came out at 0.149. As for C7G G58A, the figure is 0.281; as for A8C U21G, 0.501; as for A8C U21A, 0.972. With C7U U49A, the self-cleavage worked out at 0.957.

C7A U44A: the self-cleavage came to 0.447.

Turning to C7U C54G, the self-cleavage was 0.766. As for A8C U44G, the figure is 0.927; as for C7G U21G, 0.119.

As to C7G U21A, the self-cleavage was 0.395.

As for C7G G68C, the self-cleavage came out at 0.815. Then C7A U67A, with 0.884; and C7A U67G, with 0.858; and A8C G14U, with 0.723. Regarding C7U G14C, the self-cleavage was 0.417. Then A8C G41C, with 0.757; and A8U G11C, with 0.873. Then A8C G28A, with 0.215; and C7G A15U, with 0.0664; and A8C G25U, with 0.177. Then C7U G30U, with 0.814. Consider C7U G30A, for which the self-cleavage is 0.957. Then C7U G30C, with 0.608; and A8G G58A, with 0.867; and A8G G58U, with 0.92. A8U A52C: the self-cleavage amounted to 0.975. Then A8U A40G, with 0.97; and C7G A42U, with 0.303; and A8C U20G, with 0.141. As for A8U C39U, the self-cleavage is 0.986.

On to C7A A42U, for which the self-cleavage amounted to 0.349. Consider C7A A42C, for which the self-cleavage amounted to 0.322. As for C7A A42G, the figure is 0.471.

Take A8G A15G: the self-cleavage was 0.777. Then C7G C57A, with 0.146; and C7A C9A, with 0.97. As for C7A A23C, the figure is 0.407; as for A8G A60C, 0.143; as for C7A A16C, 0.0791.

As to C7A A16G, the self-cleavage is 0.383. As to A8C C27U, the self-cleavage is 0.342. As for A8U A15C, the figure is 0.812.

Turning to C7A C35A, the self-cleavage was 0.126. Consider A8G G65U, for which the self-cleavage turned out to be 0.223.

A8G G65C: the self-cleavage turned out to be 0.424.

Turning to A8G G48C, the self-cleavage stood at 0.954. For the variant A8C G58U, the self-cleavage stood at 1.03. As for A8C G58C, the figure is 0.963; as for A8C G37C, 0.239.

In the case of C7A U62G, the self-cleavage is 0.29.
